Results published in patent US20250230235A1 (NOVELTY NOBILITY, published 2025).

Molecular target: human c-Kit (wild type) on the cell surface of LAD2 cells (human, UniProt P10721 26-976)
Experiment: cell-based or functional assay

Sequence of human c-Kit (wild type) on the cell surface of LAD2 cells (P10721 26-976): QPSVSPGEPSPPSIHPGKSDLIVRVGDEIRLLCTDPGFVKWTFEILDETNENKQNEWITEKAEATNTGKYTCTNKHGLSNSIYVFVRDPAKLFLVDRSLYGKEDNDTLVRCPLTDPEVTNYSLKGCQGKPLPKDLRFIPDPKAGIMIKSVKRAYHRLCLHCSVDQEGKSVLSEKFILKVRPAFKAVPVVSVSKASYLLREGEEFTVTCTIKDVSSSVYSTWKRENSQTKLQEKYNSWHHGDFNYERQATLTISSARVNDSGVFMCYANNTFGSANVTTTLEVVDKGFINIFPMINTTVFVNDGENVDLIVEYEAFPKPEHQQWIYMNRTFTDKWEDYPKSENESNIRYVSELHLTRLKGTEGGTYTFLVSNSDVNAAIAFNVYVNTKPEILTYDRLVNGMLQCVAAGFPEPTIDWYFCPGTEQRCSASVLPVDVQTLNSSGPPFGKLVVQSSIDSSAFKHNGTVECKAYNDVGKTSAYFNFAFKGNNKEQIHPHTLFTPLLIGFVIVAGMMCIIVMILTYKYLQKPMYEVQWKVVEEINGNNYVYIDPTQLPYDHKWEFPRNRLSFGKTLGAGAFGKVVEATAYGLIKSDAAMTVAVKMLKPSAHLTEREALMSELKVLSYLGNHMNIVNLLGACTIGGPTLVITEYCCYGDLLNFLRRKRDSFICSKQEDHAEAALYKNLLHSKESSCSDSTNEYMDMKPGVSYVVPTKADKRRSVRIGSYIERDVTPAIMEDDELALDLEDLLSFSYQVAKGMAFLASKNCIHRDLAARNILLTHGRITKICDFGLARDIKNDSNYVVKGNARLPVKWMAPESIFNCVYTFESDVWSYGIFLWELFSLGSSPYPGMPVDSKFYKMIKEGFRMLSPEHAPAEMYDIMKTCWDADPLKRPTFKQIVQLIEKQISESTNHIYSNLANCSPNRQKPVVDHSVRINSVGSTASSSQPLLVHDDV

- half-maximal inhibitory concentration (IC50) of SCF-mediated proliferation of LAD2 cells: 0.058 µg/mL
B1: 2G4 antibody (antibody, human IgG1, kappa, V domains shown)
VH: QVQLVESGGGVVQPGRSLRLSCAASGFTFSRYGMHWVRQAPGKGLEWVAVIWYDGTNKDYTDSVRGRFTISRDNSKNTLYLQMNSLRAEDTAVYYCAREDWAEAFDMWGQGTTVTVSS
VL: not shown
- IC50 of degranulation (β-hexosaminidase release) increased by SCF and streptavidin in IgE-sensitized LAD2 cells: 0.00636 µg/mL
